Laboratory results reported in US6365161.

Columns and labels:
[1] = biological target: human FcγRI (CD64) on cells (human) (UniProt P12314); test: flow cytometry, fluorescein-conjugated antibody on peripheral blood monocytes
[2] = biological target: soluble fusion protein consisting of the extracellular domain of human FcγRI and human IgM heavy chain (sFcγRI-µ) (human) (UniProt P12314); test: ELISA on captured FcγRI/IgM heavy chain fusion protein, against a nonspecific human IgG1
soluble fusion protein consisting of the extracellular domain of human FcγRI and human IgM heavy chain (sFcγRI-µ) (human), sequence (P12314 other isoform, or with tags, fused parts or gaps limits assumed): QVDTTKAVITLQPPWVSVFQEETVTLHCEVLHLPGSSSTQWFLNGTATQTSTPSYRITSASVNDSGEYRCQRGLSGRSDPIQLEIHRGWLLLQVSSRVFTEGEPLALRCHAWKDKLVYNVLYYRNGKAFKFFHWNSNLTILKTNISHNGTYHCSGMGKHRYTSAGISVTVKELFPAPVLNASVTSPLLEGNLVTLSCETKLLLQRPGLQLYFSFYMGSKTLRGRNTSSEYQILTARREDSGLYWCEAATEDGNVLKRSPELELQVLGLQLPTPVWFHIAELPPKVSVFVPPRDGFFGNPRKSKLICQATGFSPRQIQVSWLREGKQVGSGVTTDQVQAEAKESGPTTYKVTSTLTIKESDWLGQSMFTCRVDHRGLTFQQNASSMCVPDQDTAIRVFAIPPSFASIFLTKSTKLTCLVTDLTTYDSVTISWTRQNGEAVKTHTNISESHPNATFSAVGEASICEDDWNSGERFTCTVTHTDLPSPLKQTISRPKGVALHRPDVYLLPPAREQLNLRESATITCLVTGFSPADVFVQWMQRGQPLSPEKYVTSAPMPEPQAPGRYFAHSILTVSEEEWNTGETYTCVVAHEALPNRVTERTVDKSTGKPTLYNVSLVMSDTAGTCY

human FcγRI (CD64) on cells (human), sequence (P12314 16-374): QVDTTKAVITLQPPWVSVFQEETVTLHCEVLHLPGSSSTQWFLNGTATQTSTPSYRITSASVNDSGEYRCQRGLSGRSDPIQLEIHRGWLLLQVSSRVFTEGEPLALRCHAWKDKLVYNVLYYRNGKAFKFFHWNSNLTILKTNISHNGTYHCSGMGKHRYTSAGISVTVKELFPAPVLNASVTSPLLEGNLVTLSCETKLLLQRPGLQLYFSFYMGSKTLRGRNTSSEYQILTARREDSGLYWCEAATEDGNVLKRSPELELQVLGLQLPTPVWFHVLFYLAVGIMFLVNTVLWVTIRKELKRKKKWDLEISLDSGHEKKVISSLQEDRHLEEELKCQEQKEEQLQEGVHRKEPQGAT

Antibody sites per cell (antibody sites per cell) [1]: 10500 | percent of binding via the Fv portion [2]: > 95%
B1: humanized anti-FcγRI antibody H22 (KOL VH/REI Vκ mAb) (antibody, from a related filing, V domains shown)
VH: EVQLVESGGGVVQPGRSLRLSCSSSGFIFSDNYMYWVRQAPGKGLEWVATISDGGSYTYYPDSVKGRFTISRDNSKNTLFLQMDSLRPEDTGVYFCARGYYRYEGAMDYWGQGTPVTVSS
VL: DIQLTQSPSSLSASVGDRVTITCKSSQSVLYSSNQKNYLAWYQQKPGKAPKLLIYWASTRESGVPSRFSGSGSGTDFTFTISSLQPEDIATYYCHQYLSSWTFGQGTKVEIK
